Laboratory results from US20200024330A1.

Assays:
Test in all cases: cell-based or functional assay
[1] = target: HIV-1 envelope glycoprotein (Env) of isolate MGRM-C-015, on pseudovirus (HIV-1)
[2] = target: HIV-1 Env of isolate MGRM-AE-008 (HIV-1)
[3] = target: HIV-1 envelope glycoprotein (Env) of isolate MGRM-C-026, on pseudovirus (HIV-1)
[4] = target: HIV-1 Env of isolate MGRM-G-024 (subtype G) (HIV-1)
[5] = target: HIV-1 Env of isolate MGRM-AG-013 (HIV-1)
[6] = target: HIV-1 envelope glycoprotein (Env) of isolate MGRM-C-028, on pseudovirus (HIV-1)
[7] = target: HIV-1 Env of isolate MGRM-AG-011 (HIV-1)
[8] = target: HIV-1 Env of isolate MGRM-AG-012 (HIV-1)
[9] = target: HIV-1 Env of isolate MGRM-G-019 (subtype G) (HIV-1)
[10] = target: HIV-1 Env of isolate MGRM-AG-005 (HIV-1)
[11] = target: HIV-1 envelope glycoprotein (Env) of isolate MGRM-C-019, on pseudovirus (HIV-1)
[12] = target: HIV-1 Env of isolate MGRM-AG-009 (HIV-1)
[13] = target: HIV-1 Env of isolate MGRM-G-013 (subtype G) (HIV-1)
[14] = target: HIV-1 envelope glycoprotein (Env) of isolate MGRM-C-022, on pseudovirus (HIV-1)
[15] = target: HIV-1 Env of isolate MGRM-AG-003 (HIV-1)
[16] = target: HIV-1 Env of isolate MGRM-G-025 (subtype G) (HIV-1)
[17] = target: HIV-1 envelope glycoprotein (Env) of isolate MGRM-C-014, on pseudovirus (HIV-1)
[18] = target: HIV-1 envelope glycoprotein (Env) of isolate MGRM-C-023, on pseudovirus (HIV-1)
[19] = target: HIV-1 envelope glycoprotein (Env) of isolate MGRM-C-025, on pseudovirus (HIV-1)
[20] = target: HIV-1 Env of isolate MGRM-G-016 (subtype G) (HIV-1)
[21] = target: HIV-1 Env of isolate MGRM-G-009 (subtype G) (HIV-1)
[22] = target: HIV-1 Env of isolate MGRM-AG-006 (HIV-1)
[23] = target: HIV-1 envelope glycoprotein (Env) of isolate MGRM-C-024, on pseudovirus (HIV-1)
[24] = target: HIV-1 Env of isolate MGRM-G-028 (subtype G) (HIV-1)
[25] = target: HIV-1 Env of isolate MGRM-AG-001 (HIV-1)
[26] = target: HIV-1 Env of isolate MGRM-AE-007 (HIV-1)
[27] = target: HIV-1 Env of isolate MGRM-G-015 (subtype G) (HIV-1)
[28] = target: HIV-1 Env of isolate MGRM-G-014 (subtype G) (HIV-1)
[29] = target: HIV-1 envelope glycoprotein (Env) of isolate MGRM-C-020, on pseudovirus (HIV-1)
[30] = target: HIV-1 Env of isolate MGRM-G-017 (subtype G) (HIV-1)
[31] = target: HIV-1 envelope glycoprotein (Env) of isolate MGRM-C-027, on pseudovirus (HIV-1)
[32] = target: HIV-1 Env of isolate MGRM-G-011 (subtype G) (HIV-1)
[33] = target: HIV-1 Env of isolate MGRM-G-027 (subtype G) (HIV-1)
[34] = target: HIV-1 Env of isolate MGRM-G-004 (subtype G) (HIV-1)
[35] = target: HIV-1 Env of isolate MGRM-G-006 (subtype G) (HIV-1)
[36] = target: HIV-1 Env of isolate MGRM-AG-002 (HIV-1)
[37] = target: HIV-1 Env of isolate MGRM-G-001 (subtype G) (HIV-1)
[38] = target: HIV-1 envelope glycoprotein (Env) of isolate MGRM-C-017, on pseudovirus (HIV-1)
[39] = target: aMLV envelope (negative control pseudovirus)
[40] = target: HIV-1 Env of isolate MGRM-AG-008 (HIV-1)

Which IC50, pseudovirus neutralization [1] does the source give for PGT-145 (4995_P16) (antibody) here?
The IC50, pseudovirus neutralization was 0.12 µg/mL.

What about the IC50 [2] of the same substance?
The IC50 was 1.46 µg/mL.

What about the IC50, pseudovirus neutralization [3] of the same substance?
Its IC50, pseudovirus neutralization is greater than 50 µg/mL.

What about the neutralization IC50 [4] of the same substance?
Its neutralization IC50 is 0.06 µg/mL.

What about the IC50 [5] of the same substance?
Its IC50 is 14.4 µg/mL.

What about the IC50, pseudovirus neutralization [6] of the same substance?
The IC50, pseudovirus neutralization was 0.099 µg/mL.

And the IC50 [7]?
The IC50 was 0.003 µg/mL.

What about the IC50 [8] of the same substance?
The IC50 was greater than 50 µg/mL.

What about the neutralization IC50 [9] of the same substance?
The neutralization IC50 was 0.041 µg/mL.

What about the IC50 [10] of the same substance?
The IC50 was 0.045 µg/mL.

And the IC50, pseudovirus neutralization [11]?
Its IC50, pseudovirus neutralization is 0.005 µg/mL.

What about the IC50 [12] of the same substance?
Its IC50 is greater than 50 µg/mL.

What about the neutralization IC50 [13] of the same substance?
Its neutralization IC50 is greater than 50 µg/mL.

What about the IC50, pseudovirus neutralization [14] of the same substance?
Its IC50, pseudovirus neutralization is 0.492 µg/mL.

What about the IC50 [15] of the same substance?
Its IC50 is greater than 50 µg/mL.

And the neutralization IC50 [16]?
The neutralization IC50 was greater than 50 µg/mL.

What about the IC50, pseudovirus neutralization [17] of the same substance?
The IC50, pseudovirus neutralization was 5.82 µg/mL.

And the IC50, pseudovirus neutralization [18]?
The IC50, pseudovirus neutralization was 0.201 µg/mL.

What about the IC50, pseudovirus neutralization [19] of the same substance?
Its IC50, pseudovirus neutralization is 0.044 µg/mL.

And the neutralization IC50 [20]?
The neutralization IC50 was 0.081 µg/mL.

And the neutralization IC50 [21]?
Its neutralization IC50 is 0.982 µg/mL.

What about the IC50 [22] of the same substance?
Its IC50 is 6.6 µg/mL.

What about the IC50, pseudovirus neutralization [23] of the same substance?
Its IC50, pseudovirus neutralization is 0.174 µg/mL.

What about the neutralization IC50 [24] of the same substance?
The neutralization IC50 was 0.046 µg/mL.

What about the IC50 [25] of the same substance?
Its IC50 is 0.164 µg/mL.

And the IC50 [26]?
The IC50 was 0.181 µg/mL.

What about the neutralization IC50 [27] of the same substance?
The neutralization IC50 was 10.5 µg/mL.

What about the neutralization IC50 [28] of the same substance?
The neutralization IC50 was 0.144 µg/mL.

And the IC50, pseudovirus neutralization [29]?
The IC50, pseudovirus neutralization was 0.712 µg/mL.

What about the neutralization IC50 [30] of the same substance?
Its neutralization IC50 is 0.205 µg/mL.

And the IC50, pseudovirus neutralization [31]?
Its IC50, pseudovirus neutralization is 0.095 µg/mL.

What about the neutralization IC50 [32] of the same substance?
Its neutralization IC50 is 0.028 µg/mL.

What about the neutralization IC50 [33] of the same substance?
Its neutralization IC50 is 0.433 µg/mL.

What about the neutralization IC50 [34] of the same substance?
Its neutralization IC50 is greater than 50 µg/mL.

What about the neutralization IC50 [35] of the same substance?
The neutralization IC50 was 0.286 µg/mL.

What about the IC50 [36] of the same substance?
The IC50 was 0.056 µg/mL.

And the neutralization IC50 [37]?
Its neutralization IC50 is 0.028 µg/mL.

And the IC50, pseudovirus neutralization [38]?
Its IC50, pseudovirus neutralization is greater than 50 µg/mL.

And the neutralization IC50 [39]?
The neutralization IC50 was greater than 50 µg/mL.

And the IC50 [40]?
Its IC50 is 0.244 µg/mL.
